Results published in patent US9217036 (YALE UNIVERSITY, dated 2015).

Biological target: biotin-tagged amyloid-beta 42-amino acid (Aβ42) peptide, oligomer preparation
Assay: conclusion from the cell binding studies on transfected COS-7 cells

B1: full-length mouse PrP, cellular prion protein PrP^c (receptor)
chain: not shown
  binding result: binds
